According to patent publication US20250136696A1 (HARBOUR BIOMED SHANGHAI, published 2025):

Legend:
[1] = biological target: T1, Human B7-DC/PD-L2/CD273 protein, recombinant (Fc tag) (Sino Biological, H10292-H02H) (human, UniProt Q9BQ51 20-219); test: ELISA on coated B7 family protein
T1 construct: Bought
T1 sequence (looked up): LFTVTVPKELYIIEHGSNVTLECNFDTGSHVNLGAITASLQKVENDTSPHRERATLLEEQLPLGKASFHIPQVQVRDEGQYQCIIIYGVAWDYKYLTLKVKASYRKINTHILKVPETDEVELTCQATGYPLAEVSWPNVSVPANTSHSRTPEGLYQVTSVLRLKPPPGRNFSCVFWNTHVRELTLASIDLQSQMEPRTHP
Experimental: (§1) B7 family proteins (see Table 7 for details) were respectively diluted to […] with PBS, added into a 96-well plate (Corning, #9018) at 100 μl/well, and incubated at 4° C. overnight. After the liquid was discarded, the plate was washed 3 times with a PBST buffer (pH 7.4, containing 0.05% tween-20), 250 μl of blocking solution containing 2% BSA was added, and the plate was incubated for 1 hour at 37° C. The blocking solution was discarded, the plate was washed 3 times with PBST buffer (pH 7.4, containing 0.05% Tween-20), the antigen-binding protein to be tested was diluted to 2 concentrations of 10 nM and 1 nM, 100 μl of the diluted antigen-binding protein was added to each well, and the plate was incubated for 1 hour at 37° C., with the isotype antibody as the control. After the plate was washed 3 times with PBST buffer (pH 7.4, containing 0.05% Tween-20), goat anti-human HRP secondary antibody (Invitrogen, #A18805) diluted 5000 times was added, and the plate was incubated at 37° C. for 1 hour in the dark. After the plate was washed 3 times with PBST buffer (pH 7.4, containing 0.05% tween-20), TMB (Biopanda, #TMB-S-003) was added at 100 μl/well, and the plate was placed at room temperature for about 30 minutes in the dark; and a stop solution (BBI life sciences, #E661006-0200) was added to each well at 50 μl/well to stop the reaction, and the absorbance at 450 nm (OD450) was determined in a microplate reader (PerkinElemer, #Enspire).

[2] = biological target: T2, Human PD-L1/B7-H1 protein, His tag (Acro, PD1-H5229) (human, UniProt Q9NZQ7 19-238); test: ELISA on coated B7 family protein
T2 construct: Bought
T2 sequence (Q9NZQ7 19-238 limits assumed): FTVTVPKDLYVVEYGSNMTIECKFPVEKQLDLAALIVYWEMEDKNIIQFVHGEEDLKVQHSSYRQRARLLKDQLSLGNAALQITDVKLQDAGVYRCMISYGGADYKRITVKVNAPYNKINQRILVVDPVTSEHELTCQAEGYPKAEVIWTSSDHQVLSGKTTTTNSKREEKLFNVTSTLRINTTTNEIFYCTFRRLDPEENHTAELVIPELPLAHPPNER
Experimental: as §1

[3] = biological target: T3, human B7-H7 on the cell surface (human, UniProt Q9UM44 23-414); test: flow cytometry, LS180 cells
T3 construct: whole, on cells; also called hB7-H7; hu B7-H7
T3 sequence (looked up): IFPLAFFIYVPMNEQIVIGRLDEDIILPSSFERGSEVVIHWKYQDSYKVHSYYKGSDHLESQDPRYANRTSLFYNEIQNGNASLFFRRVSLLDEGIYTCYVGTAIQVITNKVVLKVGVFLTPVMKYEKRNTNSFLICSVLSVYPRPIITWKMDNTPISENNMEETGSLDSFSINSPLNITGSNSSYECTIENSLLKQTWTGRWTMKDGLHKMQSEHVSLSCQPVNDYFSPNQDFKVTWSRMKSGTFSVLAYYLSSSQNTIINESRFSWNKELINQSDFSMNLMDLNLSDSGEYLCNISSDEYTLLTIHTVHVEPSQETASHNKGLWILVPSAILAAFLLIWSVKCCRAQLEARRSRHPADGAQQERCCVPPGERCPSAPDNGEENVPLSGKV
Experimental: This example was intended to study the in vitro activity of H2L2 monoclonal antibodies against human B7-H7 in binding to human/cynomolgus monkey B7-H7. Since homologous molecules of B7-H7 were not present in mice, the detection was not performed. […] The cells were adjusted to a cell density of 1×10⁶ cells/mL, respectively. The cells were seeded in a 96-well V-bottom plate (Corning, #3894) at 100 μL/well, and the antibody to be tested at 2× final concentration with 3-fold concentration gradient dilution was then added at 100 μL/well. The cells were incubated at 4° C. for 2 hours in the dark. After the incubation, the cells were rinsed twice by adding pre-chilled PBS containing 2% BSA at 100 μl/well, and centrifuged at 500 g at 4° C. for 5 minutes, and the supernatant was discarded. […] The cells were washed twice by adding pre-chilled PBS containing 2% BSA at 100 μL/well, and centrifuged at 500 g at 4° C. for 5 minutes, and the supernatant was discarded. Finally, the cells were resuspended in pre-chilled PBS containing 2% BSA at 200 μL/well, and the fluorescence signal values were read using an ACEA Novocyte3000 flow cytometer.

[4] = biological target: T3, human B7-H7 on the cell surface; test: flow cytometry on HEK-293/hB7-H7 cells after 0-14 days in 90% human serum at 37 C
Experimental: The cells were adjusted to a cell density of 1×10⁶ cells/mL, respectively. The cells were seeded in a 96-well V-bottom plate (Corning, #3894) at 100 μL/well, and the antibody to be tested at 2× final concentration with 3-fold concentration gradient dilution was then added at 100 μL/well. The cells were incubated at 4° C. for 2 hours in the dark. After the incubation, the cells were rinsed twice by adding pre-chilled PBS containing 2% BSA at 100 μL/well, and centrifuged at 500 g at 4° C. for 5 minutes, and the supernatant was discarded. […] The cells were washed twice by adding pre-chilled PBS containing 2% BSA at 100 μL/well, and centrifuged at 500 g at 4° C. for 5 minutes, and the supernatant was discarded. Finally, the cells were resuspended in pre-chilled PBS containing 2% BSA at 200 μL/well, and the fluorescence signal values were read using an ACEA Novocyte3000 flow cytometer.

B1: PR004260 (antibody, human IgG1, kappa, L234A L235A)
heavy: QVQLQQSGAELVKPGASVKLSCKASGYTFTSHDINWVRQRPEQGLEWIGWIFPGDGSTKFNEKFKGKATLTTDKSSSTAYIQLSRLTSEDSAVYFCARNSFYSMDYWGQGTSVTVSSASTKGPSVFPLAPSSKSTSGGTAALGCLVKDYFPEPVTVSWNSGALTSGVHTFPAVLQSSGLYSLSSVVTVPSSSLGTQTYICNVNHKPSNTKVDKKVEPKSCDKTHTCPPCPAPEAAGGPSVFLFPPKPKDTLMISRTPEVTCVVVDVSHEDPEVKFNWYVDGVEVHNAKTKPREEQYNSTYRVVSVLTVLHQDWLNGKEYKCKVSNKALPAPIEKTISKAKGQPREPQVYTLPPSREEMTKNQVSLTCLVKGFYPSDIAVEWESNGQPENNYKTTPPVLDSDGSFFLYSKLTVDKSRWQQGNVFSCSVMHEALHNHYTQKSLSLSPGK
light: DIVMSQSPSSLAVSAGEKVTMSCKSSQSLLNSRTRKNQLAWYQQKPGQSPKLLIYWASTRESGVPDRFTGSGSGTDFTLTISSVQAEDLAVYYCKQSYNLRTFGGGTKLEIKRTVAAPSVFIFPPSDEQLKSGTASVVCLLNNFYPREAKVQWKVDNALQSGNSQESVTEQDSKDSTYSLSSTLTLSKADYEKHKVYACEVTHQGLSSPVTKSFNRGEC
notes: Variant of PR003181; Human IgG1 with LALA mutation in Fc
[1]
  binding result: no binding (tested: 10 nM)
[2]
  binding result: no binding (tested: 10 nM)

B2: PR003264 (antibody, human IgG1, kappa)
heavy: not shown
light: DIQLTQSPSFLSASVGDRVTITCRASQGISSYFAWYQQKPGKAPKLLIYAASTLQSGVPSRFSGSGSGTEFTLTISSLQPEDFATYYCQHLNRYPWTFGQGTKVEIKRTVAAPSVFIFPPSDEQLKSGTASVVCLLNNFYPREAKVQWKVDNALQSGNSQESVTEQDSKDSTYSLSSTLTLSKADYEKHKVYACEVTHQGLSSPVTKSFNRGEC
notes: Human IgG1; also called 77G10D3
[3]
  EC50: 2.2 nM
  Maximum MFI: 21800 MFI

B3: PR004263 (antibody, human IgG1, kappa, L234A L235A)
heavy: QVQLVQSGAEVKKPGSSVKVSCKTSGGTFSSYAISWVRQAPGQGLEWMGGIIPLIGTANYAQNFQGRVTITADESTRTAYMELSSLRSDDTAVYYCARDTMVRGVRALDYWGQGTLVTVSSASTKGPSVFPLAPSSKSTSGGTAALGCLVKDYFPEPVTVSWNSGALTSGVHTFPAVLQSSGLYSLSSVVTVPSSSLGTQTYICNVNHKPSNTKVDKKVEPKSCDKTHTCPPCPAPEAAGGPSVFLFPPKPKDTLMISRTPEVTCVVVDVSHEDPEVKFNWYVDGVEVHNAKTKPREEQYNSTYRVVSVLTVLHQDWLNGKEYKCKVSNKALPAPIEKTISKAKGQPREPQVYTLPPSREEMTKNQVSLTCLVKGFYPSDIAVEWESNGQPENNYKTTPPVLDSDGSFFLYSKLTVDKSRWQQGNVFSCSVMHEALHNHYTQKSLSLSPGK
light: B2 light
notes: Variant of PR003264; Human IgG1 with LALA mutation in Fc
[4]
  EC50 (read off the curve): ~1 nM
[3]
  EC50: 3.08 nM
  Maximum MFI: 24000 MFI
[1]
  binding result: no binding (tested: 10 nM)
[2]
  binding result: no binding (tested: 10 nM)
